Reference: PMC6684406 (Nature structural & molecular biology, 2019)

Target: T1, Pmt1 (protein O-mannosyltransferase 1), C-terminal 3×FLAG-tagged (S. cerevisiae, UniProt P33775 1-817, N-glycan on N390)
T1 sequence (looked up): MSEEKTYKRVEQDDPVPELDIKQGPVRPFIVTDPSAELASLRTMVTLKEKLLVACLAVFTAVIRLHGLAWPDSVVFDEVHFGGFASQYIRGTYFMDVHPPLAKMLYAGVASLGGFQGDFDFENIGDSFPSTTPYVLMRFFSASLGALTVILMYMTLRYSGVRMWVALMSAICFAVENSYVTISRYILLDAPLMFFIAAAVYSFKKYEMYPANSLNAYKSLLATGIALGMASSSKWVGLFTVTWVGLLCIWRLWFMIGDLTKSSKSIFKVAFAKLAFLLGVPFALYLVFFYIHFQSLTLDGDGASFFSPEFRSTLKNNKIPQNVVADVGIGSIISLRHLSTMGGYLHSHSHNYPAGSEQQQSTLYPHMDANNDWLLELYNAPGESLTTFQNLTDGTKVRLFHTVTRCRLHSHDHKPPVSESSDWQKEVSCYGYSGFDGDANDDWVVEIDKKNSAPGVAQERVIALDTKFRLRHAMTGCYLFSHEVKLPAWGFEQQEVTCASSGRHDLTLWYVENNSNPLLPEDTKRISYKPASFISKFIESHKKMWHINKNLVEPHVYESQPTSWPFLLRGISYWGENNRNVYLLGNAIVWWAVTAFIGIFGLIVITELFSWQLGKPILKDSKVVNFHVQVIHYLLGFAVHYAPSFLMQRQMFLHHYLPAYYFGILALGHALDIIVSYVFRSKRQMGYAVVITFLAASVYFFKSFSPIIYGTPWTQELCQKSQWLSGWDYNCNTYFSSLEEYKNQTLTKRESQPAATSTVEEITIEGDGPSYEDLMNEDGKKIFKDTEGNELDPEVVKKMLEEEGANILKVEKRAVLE
Experiment: cryo-EM structure

stoichiometry N: 1
B1: Pmt2 (protein O-mannosyltransferase 2) (enzyme, S. cerevisiae, UniProt P31382 1-759, looked up)
chain: MSSSSSTGYSKNNAAHIKQENTLRQRESSSISVSEELSSADERDAEDFSKEKPAAQSSLLRLESVVMPVIFTALALFTRMYKIGINNHVVWDEAHFGKFGSYYLRHEFYHDVHPPLGKMLVGLSGYLAGYNGSWDFPSGEIYPDYLDYVKMRLFNASFSALCVPLAYFTAKAIGFSLPTVWLMTVLVLFENSYSTLGRFILLDSMLLFFTVASFFSFVMFHNQRSKPFSRKWWKWLLITGISLGCTISVKMVGLFIITMVGIYTVIDLWTFLADKSMSWKTYINHWLARIFGLIIVPFCIFLLCFKIHFDLLSHSGTGDANMPSLFQARLVGSDVGQGPRDIALGSSVVSIKNQALGGSLLHSHIQTYPDGSNQQQVTCYGYKDANNEWFFNRERGLPSWSENETDIEYLKPGTSYRLVHKSTGRNLHTHPVAAPVSKTQWEVSGYGDNVVGDNKDNWVIEIMDQRGDEDPEKLHTLTTSFRIKNLEMGCYLAQTGNSLPEWGFRQQEVVCMKNPFKRDKRTWWNIETHENERLPPRPEDFQYPKTNFLKDFIHLNLAMMATNNALVPDPDKFDYLASSAWQWPTLNVGLRLCGWGDDNPKYFLLGTPASTWASSVAVLAFMATVVILLIRWQRQYVDLRNPSNWNVFLMGGFYPLLAWGLHYMPFVIMSRVTYVHHYLPALYFALIILAYCFDAGLQKWSRSKCGRIMRFVLYAGFMALVIGCFWYFSPISFGMEGPSSNFRYLNWFSTWDIADKQEA
modifications: N-glycan on N131
